The record followed here is FireProtDB (doi:10.1016/0014-5793(94)01308-n).

For this data set the following is noted: Sus scrofa, Thermal, DSC, Sodium phosphate 5 mM, reversible: yes, whole UniProt chain shown.

Several values for one entry are separate records, joined by “and”; a condition that tells them apart may be missing. Equal values may be shown once.

B1: Gastricsin wild type, P30879 (protein)
chain: SVIKVPLKKLKSIRQAMKEKGLLEEFLKTHKYDPAQRYRIGDISVALEPMAYLEAAYFGEISIGTPPQNFLVL
The term Tm denotes the temperature at which the thermal transition is half complete. As for B1, the Tm reads like this: (pH 6) 66.2 °C; (pH 6.8) 47.2 °C; (pH 7.2) 56.1 °C; (pH 7.3) 39.8 °C; (pH 7.7) 55 °C; (pH 8) 51.1 °C. The Tm (pH 8.2) stood at 33.8 °C. Further, the “unfolding enthalpy (calorimetric)” value by setting is: (pH 6) 254 kcal/mol; (pH 6.4) 248 kcal/mol and 269 kcal/mol; (pH 6.8) 221 kcal/mol; (pH 7.2) 195 kcal/mol; (pH 7.3) 192 kcal/mol; (pH 7.7) 173 kcal/mol. Besides, the “unfolding enthalpy (calorimetric)” value stood at 182 kcal/mol (pH 8) and 170 kcal/mol (pH 8.2).
